In article PMC3788043 (Journal of the American Society for Mass Spectrometry, 2013):
Positions count from the first letter of the chain named. Names may count otherwise.

B1: maltose binding protein fusion of UreD (MBP-UreD) (natural protein, Klebsiella aerogenes, UniProt Q09063 1-270, looked up)
chain: MLPPLKKGWQATLDLRFHQAGGKTVLASAQHVGPLTVQRPFYPEEETCHLYLLHPPGGIVGGDELTISAHLAPGCHTLITMPGASKFYRSSGAQALVRQQLTLAPQATLEWLPQDAIFFPGANARLFTTFHLCASSRLLAWDLLCLGRPVIGETFSHGTLSNRLEVWVDNEPLLVERLHLQEGELSSIAERPWVGTLLCYPATDALLDGVRDALAPLGLYAGASLTDRLLTVRFLSDDNLICQRVMRDVWQFLRPHLTGKSPVLPRIWLT
B2: MBP-UreD:UreF (complex, Klebsiella aerogenes)
chain 1: B1 chain
chain 2: MSTAEQRLRLMQLASSNLPVGGYSWSQGLEWAVEAGWVLDVAAFERWQRRQMTEGFFTVDLPLFARLYRACEQGDIAAAQRWTAYLLACRETRELREEERNRGAAFARLLSDWQPDCPPPWRSLCQQSQLAGMAWLGVRWRIALPEMALSLGYSWIESAVMAGVKLVPFGQQAAQQLILRLCDHYAAEMPRALAAPDGDIGSATPLAAIASARHETQYSRLFRS
B3: K165A variant of UreF (natural protein)
chain: B2 chain 2 with K165A

Legend:
[1] = target: urease apoprotein (UreABC)3 (Klebsiella aerogenes, UniProt P18316 1-100; P18315 1-106; P18314 1-567); assay: native MS
Sequence of urease apoprotein (UreABC)3 (P18316 whole entry, chain 1 of 3): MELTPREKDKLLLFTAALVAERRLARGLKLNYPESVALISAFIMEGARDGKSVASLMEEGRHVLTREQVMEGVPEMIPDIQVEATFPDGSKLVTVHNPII
Sequence of urease apoprotein (UreABC)3 (P18315 whole entry, chain 2 of 3): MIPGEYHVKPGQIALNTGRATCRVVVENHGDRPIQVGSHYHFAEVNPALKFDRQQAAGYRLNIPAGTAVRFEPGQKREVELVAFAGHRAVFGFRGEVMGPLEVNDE
Sequence of urease apoprotein (UreABC)3 (P18314 whole entry, chain 3 of 3): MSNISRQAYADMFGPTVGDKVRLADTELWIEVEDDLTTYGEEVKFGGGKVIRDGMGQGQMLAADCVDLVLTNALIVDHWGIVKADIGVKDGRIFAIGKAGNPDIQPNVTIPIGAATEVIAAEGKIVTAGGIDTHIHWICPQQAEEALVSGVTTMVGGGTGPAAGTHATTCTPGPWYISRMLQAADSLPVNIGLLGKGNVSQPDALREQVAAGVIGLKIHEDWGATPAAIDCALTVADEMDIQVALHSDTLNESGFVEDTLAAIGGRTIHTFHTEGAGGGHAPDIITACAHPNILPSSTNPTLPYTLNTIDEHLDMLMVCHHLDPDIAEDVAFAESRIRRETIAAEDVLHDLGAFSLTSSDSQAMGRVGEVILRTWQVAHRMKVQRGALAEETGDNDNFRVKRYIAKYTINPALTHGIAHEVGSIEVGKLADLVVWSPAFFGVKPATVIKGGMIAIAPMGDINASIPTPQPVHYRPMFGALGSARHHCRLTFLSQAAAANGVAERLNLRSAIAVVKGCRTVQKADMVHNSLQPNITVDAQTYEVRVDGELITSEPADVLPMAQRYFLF

cross-linking = target: the molecule itself; assay: cross-linking

Binder | binding result [1] | binding result (cross-linking)
B1 | binds | –
B2 | binds | –
B3 | – | binds
